Laboratory results from publication PMC8421406, “C9orf72-derived arginine-rich poly-dipeptides impede phase modifiers” (Nature Communications, 2021).
Each block holds one molecule with its values, some of them ahead of it.

Columns and labels:
Kapβ2 = assay: Solution NMR (1H-13C methyl) of labelled Kapβ2; assay type: binding; conditions: comparison of perturbations by PR20, M9M and FUS-ΔNLS
Protocol: The Kapβ2 expression plasmid was transformed into BL21(DE3) cells. The protein samples with ^1H,^13C-labeled methyl groups in deuterium background were prepared as described in a previous study. The cells were grown in medium with ^15NH4Cl (2 gL^−1, CIL) and ^2H7-glucose (2 g L^−1, CIL) in 99.9% ^2H2O (Isotec). The precursors for methyl groups of Ile, Val, and Leu, α-ketobutyric acid (50 mg L^−1) and α-ketoisovaleric acid (80 mg L^−1), and [^13CH3] methionine (50 mg L^−1) were added to the culture 1 h before the addition of IPTG. Protein expression was induced by the addition of 0.5 mM IPTG at OD600 ~ 0.6, followed by ~16 h of incubation at 25 °C. […] Protein concentration was determined spectrophotometrically at 280 nm using a corresponding extinction coefficient.
The isotopically labeled Kapβ2 was prepared in the NMR buffer containing 20 mM ^2H-Tris pH 7.4, 150 mM NaCl, 2 mM MgCl2, 2 mM DTT, and 2% glycerol, concentrated to 20 μM. […] Perturbation of the side chain methyl resonances were each monitored using ^1H-^13C heteronuclear multiple quantum coherence. […] The perturbations of the resonances were evaluated based on chemical shift change or intensity change. […]
In order to investigate the interaction between Kapβ2 and PR poly-dipeptide by NMR, the NMR spectra of the isotopically labeled Kapβ2 in the absence and presence of the synthetic peptide of PR20:HA were measured. […]

[1] = test system: MBP:FUS (full-length FUS droplets) / Kapβ2; assay: Turbidity assay of FUS droplet formation (OD 395 nm); assay type: biochemical; conditions: 8 μM Kapβ2, 8 μM MBP:FUS
[2] = test system: FUS droplets (MBP:FUS/MBP:FUS:EGFP) / Kapβ2; assay: Fluorescence microscopy of FUS droplets; assay type: biochemical; conditions: 16 μM Kapβ2, 16 μM Kapβ2–M9M complex, 50 μM PR20, repeated three times
[3] = test system: GFP:FUS-LC:NLS / mCh:FUS-LC hydrogel; assay: Hydrogel binding assay, GFP:FUS-LC:NLS on mCh:FUS-LC hydrogel; assay type: biochemical; conditions: Kapβ2 0.1-1.0 µM; PR20 with 1.0 µM Kapβ2
Protocol: The experiment was independently repeated three times with similar results. Here, 10 μm scale bars are shown in the image. e Graphical description of hydrogel binding assay. Hydrogels of mCh:LC-domain accumulate GFP:LC-domain as it co-polymerizes. f Hydrogel binding assay for FUS-LC in the absence and presence of Kapβ2. mCh:FUS-LC (lower images) were incubated with 1.0 µM of GFP (left panel) or 1.0 µM of GFP:FUS-LC:NLS (right panel) in the presence of different concentrations of Kapβ2 (left to right: 0.1, 0.3, and 1.0 µM). g Quantitative analysis of Fig. 1f. Relative intensity of GFP signals is shown as the mean of three independent experiments ± SD, analyzed by one-way ANOVA followed by Dunnett’s multiple comparison test (**P < 0.01, ***P < 0.001). h Hydrogel binding assay for FUS-LC in the absence and presence of Kapβ2 and/or PR20. Hydrogel droplets of mCh:FUS-LC (lower images) were incubated with 1.0 µM of GFP (left panel) or GFP:FUS-LC:NLS (right panel). GFP:FUS-LC:NLS containing Kapβ2 (1.0 µM) was challenged for homotypic polymer extension in the absence or presence of different concentration of PR20. i Quantitative analysis of Fig. 1h. Relative intensity of GFP signals is shown as the mean of three independent experiments ± SD, analyzed by one-way ANOVA followed by Dunnett’s multiple comparison test (**P < 0.01). Source data are provided as a Source Data file. […]

[4] = test system: GFP:FUS-LC / mCh:FUS-LC hydrogel; assay: Hydrogel binding assay, GFP:FUS-LC on mCh:FUS-LC hydrogel; assay type: biochemical; conditions: Kapβ2 0.1-10.0 µM; 1.0 µM GFP:FUS-LC
From the text: Expression plasmids for recombinant proteins (GFP/mCherry fusion LC-domain of FUS (residue 2–214, GFP/mCh:FUS-LC) and GFP/mCherry fusion LC-domain of hnRNPA2 (residue 181–341, GFP/mCh:hnRNPA2-LC)) were obtained from the Steven L. McKnight Laboratory. Expression plasmid for GFP:FUS-LC fusion NLS (residue 501–526, GFP:FUS-LC:NLS), mCh fusion LC-domain of TDP43 (residue 262–414, mCh:TDP43-LC), and GFP-tagged cNLS (residue 78–99) fusion TDP43-LC (GFP:cNLS:TDP43-LC) were constructed using In-Fusion HD Cloning Kit (Takara Bio, Inc.). GFP/mCh:FUS-LC, GFP:FUS-LC:NLS, and GFP/mCh:hnRNPA2-LC were expressed in E. coli BL21(DE3) cells with 0.5 mM IPTG at 20 °C overnight and purified by Ni-NTA Agarose (FUJIFILM Wako Pure Chemical Corporation), as described in a previous study. GFP:cNLS:TDP43-LC were expressed with 1.0 mM IPTG at 37 °C for 3 h and mCh:TDP43-LC were expressed with 0.5 mM IPTG at 16 °C overnight. GFP:cNLS:TDP43-LC and mCh:TDP43-LC were purified by Ni-NTA as described in a previous study[48] with some modifications. […] Relative intensity of GFP signals across the hydrogel droplets were measured in triplicate by using the profile plot mode in ImageJ. […]

B1: FUS-ΔNLS: FUS (1-500, FUS-ΔNLS) (protein)
chain: MASNDYTQQATQSYGAYPTQPGQGYSQQSSQPYGQQSYSGYSQSTDTSGYGQSSYSSYGQSQNTGYGTQSTPQGYGSTGGYGSSQSSQSSYGQQSSYPGYGQQPAPSSTSGSYGSSSQSSSYGQPQSGSYSQQPSYGGQQQSYGQQQSYNPPQGYGQQNQYNSSSGGGGGGGGGGNYGQDQSSMSSGGGSGGGYGNQDQSGGGGSGGYGQQDRGGRGRGGSGGGGGGGGGGYNRSSGGYEPRGRGGGRGGRGGMGGSDRGGFNKFGGPRDQGSRHDSEQDNSDNNTIFVQGLGENVTIESVADYFKQIGIIKTNKKTGQPMINLYTDRETGKLKGEATVSFDDPPSAKAAIDWFDGKEFSGNPIKVSFATRRADFNRGGGNGRGGRGRGGPMGRGGYGGGGSGGGGRGGFPSGGGGGGGQQRAGDWKCPNPTCENMNFSWRNECNQCKAPKPDGPGGGPGGSHMGGNYGDDRRGGRGGYDRGGYRGRGGDRGGFRGGRGG
modifications: left off: MBP, end not stated, state not stated
Binding site on Kapβ2 by NMR (Kapβ2): the binding site for FUS-ΔNLS does not overlap with that for PR20

Effect on hydrogel binding of GFP:FUS-LC:NLS [3]: blocked by Kapβ2
Effect on hydrogel binding of GFP:FUS-LC [4]: not blocked
B2: Kapβ2: nuclear import receptor karyopherin-β2, recombinant (protein)
chain: MVWDRQTKMEYEWKPDEQGLQQILQLLKESQSPDTTIQRTVQQKLEQLNQYPDFNNYLIFVLTKLKSEDEPTRSLSGLILKNNVKAHFQNFPNGVTDFIKSECLNNIGDSSPLIRATVGILITTIASKGELQNWPDLLPKLCSLLDSEDYNTCEGAFGALQKICEDSAEILDSDVLDRPLNIMIPKFLQFFKHSSPKIRSHAVACVNQFIISRTQALMLHIDSFIENLFALAGDEEPEVRKNVCRALVMLLEVRMDRLLPHMHNIVEYMLQRTQDQDENVALEACEFWLTLAEQPICKDVLVRHLPKLIPVLVNGMKYSDIDIILLKGDVEEDETIPDSEQDIRPRFHRSRTVAQQHDEDGIEEEDDDDDEIDDDDTISDWNLRKCSAAALDVLANVYRDELLPHILPLLKELLFHHEWVVKESGILVLGAIAEGCMQGMIPYLPELIPHLIQCLSDKKALVRSITCWTLSRYAHWVVSQPPDTYLKPLMTELLKRILDSNKRVQEAACSAFATLEEEACTELVPYLAYILDTLVFAFSKYQHKNLLILYDAIGTLADSVGHHLNKPEYIQMLMPPLIQKWNMLKDEDKDLFPLLECLSSVATALQSGFLPYCEPVYQRCVNLVQKTLAQAMLNNAQPDQYEAPDKDFMIVALDLLSGLAEGLGGNIEQLVARSNILTLMYQCMQDKMPEVRQSSFALLGDLTKACFQHVKPCIADFMPILGTNLNPEFISVCNNATWAIGEISIQMGIEMQPYIPMVLHQLVEIINRPNTPKTLLENTAITIGRLGYVCPQEVAPMLQQFIRPWCTSLRNIRDNEEKDSAFRGICTMISVNPSGVIQDFIFFCDAVASWINPKDDLRDMFCKILHGFKNQVGDENWRRFSDQFPLPLKERLAAFYGV
modifications: left off: GST, end not stated, cleaved
notes: nuclear import receptor karyopherin-β2, recombinant
Effect of Kapβ2 on FUS droplet formation (turbidity) [1]: kept FUS from changing into liquid-like droplets
Effect on FUS droplets (microscopy) [2]: FUS droplets are dissolved by Kapβ2
